Consider one protein from paper PMC6699109, “A GH51 α-L-arabinofuranosidase from Talaromyces leycettanus strain JCM12802 that selectively drives synergistic lignocellulose hydrolysis” (Microbial Cell Factories, 2019).

Substrate in the data set: O=[N+]([O-])c1ccc(O[C@@H]2O[C@@H](CO)[C@H](O)[C@H]2O)cc1
Briefly: purified protein. It counts as biochemical, Evansstolkia leycettana. The conditions noted are these: 0.1 M McIlvaine buffer pH 3.5, 55 °C, 5 min, 0.1–5 mM substrate.

B1: TlAbf51 (Evansstolkia leycettana) (protein)
chain: MKTLPALAGGLAVAVTYLSGLAFAIDLTVSKTGGNASSPLLYGIMFEDINNSGDGGIHGQLLKNNGFQGNNPGLTAYAAVGNVTLSQDTSNPLSSAITSSLKVSVPPGTTGYVGFANTGYAGVPVVATTYANYFWMKGKYSGTINLRLVGTSSGIVYASHNITVHSTDSQFTYYDTSFTSSASPDGNNEWQLLFDGSQVAGSSLNFGLVQLFPPTYHSRYNGLRNDVASFLEEIKPSFLRFPGGNNLEGASPADRWKWNATIGPVVDRPGRQGDWGYPNTDALGLDEYLYWCEDMGMEPVLAVWSGLSLGGGIVSGSALDPYVDDIMNELEYLLGDMSTAGGRLRAQNGRTEPWPIKHVEVGNEDNLSSGCGTYASRFTQIYNAIHAAYPDITVIASTTDASCLPSSILEGVITDIHHYLNPDQFVALFNEWDNWPRTHPIFVGEYASTHNSDGSQTYWTRMRGSCGEAVYMIGMERNSDIVKMASYAPLLEHFNLAEWSPDLFGLDSSPDSITGSTSYYVQKMFSTNRGSTILPVTSDAGFGPVYWVASVSGSTYYVKLANYGSASETVTINIDGTKSGTLEMLSGAEMGSNYPHNVTITPQTSSVSGSGSFTVTMPAWAVAVLAVS
notes: secreted from Pichia pastoris GS115 (pPIC9, EcoRI/NotI), purified
As for B1, the Km – broadly, the substrate concentration at which the rate is half of its maximum – was 280 ± 10 µM; the kcat – broadly, the number of substrate molecules converted per active site and unit of time at saturation – was determined as 1600 s⁻¹.
